One data set deals with U78 MG tumour. Description: efficacy of BCNU matrices in tumour-bearing nude mice (FIG. 2). In kind it is in vivo. The conditions noted are these: U78 MG tumour subcutaneously inoculated. On the procedure:
Thus the effectiveness of BCNU in tumour-bearing nude mice (U78 MG tumour subcutaneously inoculated) is the same for a lipid matrix according to the invention and for a conventional polyanhydride matrix, as shown in FIG. 2.
In FIG. 2, the area of the tumour is plotted in […] on the ordinate, and the time in days on the abscissa.

For data set [1] the following is noted: cited from earlier work.
Data set [2] in a line: release of model substances from cylindrical lipid carrier systems with differing gelatin content (FIGS. 3 and 4). In kind it is physicochemical. To be noted: phosphate buffer pH 7.4, 37° C.; for period of controlled release: lipid matrix with 0, 1, 5, 10 and 20% gelatin, cylindrical; for control of release via gelatin content: fluorescence intensity. From the text:
FIGS. 3 and 4 show diagrams illustrating the dependence of the rate of release on the proportion of release-controlling substance in the carrier system according to the invention. In the embodiment shown in FIGS. 3 and 4, a lipid matrix composed of glycerol tripalmitate with differing gelatin contents […]. The carrier system used is cylindrical in shape.
The proportion of gelatin within the carrier system is 0, 1, 5, 10 and 20%.
The quantity released in percent is shown on the ordinate, and the time in days on the abscissa.
Substances used for the release from the carrier system (for example pyranine or tetramethylrhodamine-labelled bovine serum albumin (TAMRA-BSA) were dispersed in the desired quantity in an aqueous 15% (m/m) gelatin solution. 100-μl portions of this dispersion were pipetted into each opening in a 96-hole plate, and freeze-dried. The lyophilisate was comminuted in a mortar, and mixed with glyceryl trimyristate in a desired percentage. Powder mixtures with a content of up to 30% (m/m) of gelatin resulted. Cylindrical carrier systems were produced by compressing the corresponding proportions by weight of gelatin with lipid granulate. To this end, 7 mg of substance was produced in a 2-mm pressing tool using a compressive force of 250 N over 10 sec. In this way, carrier system charged with pyranine or fluorescence-labelled bovine serum albumin (TAMRA-BSA) were produced in the composition, as shown in Table 1.
(§1) To test the release of model substances from carrier systems depending on the content of release-controlling substance, the cylinders obtained in Example 1 were incubated at 37° C. in 40 ml of phosphate buffer at pH 7.4. The release of the substances was monitored by measuring the fluorescence intensity. To this end, pyranine was excited at 407 nm and the emission measured over 436 nm. The TAMRA-BSA content was determined at a wavelength of 572 nm with excitation at 541 nm.

The nature of data set [3]: release of active hyaluronidase from carrier matrices in phosphate buffer, activity via Morgan-Elson reaction (FIG. 1). Format: physicochemical. As for the experimental part:
The ordinate gives the release quantity of hyaluronidase in percent, and the abscissa the time in hours.
as §1
To test the stabilising properties of the carrier systems, glyceryl trimyristate was worked up with hyaluronidase. To this end, 25 mg neopermease, a mixture of 200,000 IU hyaluronidase and gelatin, was mixed with 325 mg of lipid and compressed as described in Example 1 to form cylindrical carrier systems weighing 7 mg. The gelatin content of this mixture was approximately 7.1%. To determine the release of the enzyme, 5 matrices were incubated with phosphate buffer as described in Example 2, and the release determined by measuring the activity via the Morgan-Elson reaction (Muckenschnabel I., Cancer Lett. 131(1) (1998) 13 to 20).

For the compound `O=NN(CCCl)C(=O)NCCCl` [BCNU, carmustine], in the data set on U78 MG tumour, the “effectiveness (tumour area over time), lipid matrix versus conventional polyanhydride matrix” value is given as “the same”. The half-life in plasma result in data set [1] is “approximately 20 minutes”.
For `O=S(=O)([O-])c1cc(O)c2ccc3c(S(=O)(=O)[O-])cc(S(=O)(=O)[O-])c4ccc1c2c34.[Na+].[Na+].[Na+]` [pyranine], in data set [2], the “period of controlled release” value is given as “over a period of several weeks” and the “control of release via gelatin content” value is on record as “optimally controlled via the gelatin content”.
“TAMRA-BSA: bovine serum albumin fluorescence-labelled with tetramethylrhodamine”: in data set [2], the “period of controlled release” value is given as “over a number of weeks or months” and the “control of release via gelatin content” value was “optimally controlled via the gelatin content”.
For hyaluronidase, in data set [3] (glyceryl trimyristate cylinders, gelatin approximately 7.1%, phosphate buffer pH 7.4, 37° C.), the “activity liberated from carrier system” value was “all the activity is liberated”. Besides, the “effect of release on the enzyme” value in data set [3] (release from conventional system poly(1,3-bis[carboxyphenoxypropane]-sebacic acid) 20:80) is recorded as “inactivation”. Besides, in data set [3] (release from glyceryl tripalmitate matrix), the “activity of the enzyme achieved on release” value was found to be 100%.
